Source: paper PMC10340229, “EpoR Activation Stimulates Erythroid Precursor Proliferation by Inducing Phosphorylation of Tyrosine-88 of the CDK-Inhibitor p27^Kip1” (Cells, 2023)
Where a chain is given by its changes, count along the chain named. Numbers in names are those of the source. One block for each binder: values may come before it.

What was measured:
[1] = target: T1, bacterially expressed recombinant p27 (full–length p27) (human, UniProt P46527 1-198); assay: pull-down; GST fusion proteins bound on glutathione Sepharose beads incubated for 2 h at 4 °C with purified bacterial p27, p27 mutants or p27 fragments; extensive washing; bound p27 detected by Western blot; settings: both partners purified
T1 construct: p27^Kip1 (CDKN1B), human, full length; No tag is named for the full-length protein; also called purified p27; source: bacteria, purified by heat treatment (95 °C, ultracentrifugation)

[2] = target: T2, GST–hIC EpoR (273–508aa), cytoplasmic domain of human EpoR (human, UniProt P19235 273-508); assay: as above; settings: both partners purified
T2 construct: also called GST–EpoR; source: E. coli BL21, purified on glutathione Sepharose beads
T2 sequence (looked up): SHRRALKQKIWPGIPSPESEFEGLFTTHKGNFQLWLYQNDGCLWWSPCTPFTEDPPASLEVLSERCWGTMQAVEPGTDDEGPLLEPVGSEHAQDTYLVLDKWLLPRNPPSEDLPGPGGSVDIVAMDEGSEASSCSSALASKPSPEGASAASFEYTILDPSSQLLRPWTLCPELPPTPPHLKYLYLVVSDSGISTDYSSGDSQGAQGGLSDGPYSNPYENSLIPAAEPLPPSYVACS

- binding result [1]: binds
B1: GST–hIC EpoR N (273–433aa) (domain or fragment, human, UniProt P19235 273-433, looked up)
chain: SHRRALKQKIWPGIPSPESEFEGLFTTHKGNFQLWLYQNDGCLWWSPCTPFTEDPPASLEVLSERCWGTMQAVEPGTDDEGPLLEPVGSEHAQDTYLVLDKWLLPRNPPSEDLPGPGGSVDIVAMDEGSEASSCSSALASKPSPEGASAASFEYTILDPSS
notes: also called N–terminal truncated cytoplasmic domain of EpoR; source: E. coli BL21, purified on glutathione Sepharose beads

- binding result [2]: binds
B2: p27 ΔSH3 (amino acids 94, 95, 96 PPK to GCA) (natural protein, human, UniProt P46527 1-198, looked up)
chain: MSNVRVSNGSPSLERMDARQAEHPKPSACRNLFGPVDHEELTRDLEKHCRDMEEASQRKWNFDFQNHKPLEGKYEWQEVEKGSLPEFYYRPPRGCAGACKVPAQESQDVSGSRPAAPLIGAPANSEDTHLVDPKTDPSDSQTGLAEQCAGIRKRPATDDSSTQNKRANRTEENVSDGSPNAGSVEQTPKKPGLRRRQT
notes: p27^Kip1 (CDKN1B), human, with point mutations in the proline-rich region; also called p27 ∆SH3; ΔSH3 mutant; source: bacteria, purified by heat treatment

- binding result [2]: binds
B3: p27 CK– (R30A, L32A, F62A, F64A) (natural protein, human, UniProt P46527 1-198, looked up)
chain: B2 chain with R30A, L32A, F62A, F64A, G94P, C95P, A96K
notes: p27^Kip1 (CDKN1B), human, with four point mutations; source: bacteria, purified by heat treatment
